The record followed here is publication PMC10786891, “Massively parallel profiling of RNA-targeting CRISPR-Cas13d”.

As usually defined, the Kd is the constant that tells how readily two partners part at equilibrium. A high value points to weaker binding.

Numbering of substitutions follows the chain as printed. Numbers in names are those of the source.

T1: EsCas13d, nuclease-dead (Eubacterium siraeum, UniProt B0MS50, R295A;H300A;R849A;H854A)
T1 sequence: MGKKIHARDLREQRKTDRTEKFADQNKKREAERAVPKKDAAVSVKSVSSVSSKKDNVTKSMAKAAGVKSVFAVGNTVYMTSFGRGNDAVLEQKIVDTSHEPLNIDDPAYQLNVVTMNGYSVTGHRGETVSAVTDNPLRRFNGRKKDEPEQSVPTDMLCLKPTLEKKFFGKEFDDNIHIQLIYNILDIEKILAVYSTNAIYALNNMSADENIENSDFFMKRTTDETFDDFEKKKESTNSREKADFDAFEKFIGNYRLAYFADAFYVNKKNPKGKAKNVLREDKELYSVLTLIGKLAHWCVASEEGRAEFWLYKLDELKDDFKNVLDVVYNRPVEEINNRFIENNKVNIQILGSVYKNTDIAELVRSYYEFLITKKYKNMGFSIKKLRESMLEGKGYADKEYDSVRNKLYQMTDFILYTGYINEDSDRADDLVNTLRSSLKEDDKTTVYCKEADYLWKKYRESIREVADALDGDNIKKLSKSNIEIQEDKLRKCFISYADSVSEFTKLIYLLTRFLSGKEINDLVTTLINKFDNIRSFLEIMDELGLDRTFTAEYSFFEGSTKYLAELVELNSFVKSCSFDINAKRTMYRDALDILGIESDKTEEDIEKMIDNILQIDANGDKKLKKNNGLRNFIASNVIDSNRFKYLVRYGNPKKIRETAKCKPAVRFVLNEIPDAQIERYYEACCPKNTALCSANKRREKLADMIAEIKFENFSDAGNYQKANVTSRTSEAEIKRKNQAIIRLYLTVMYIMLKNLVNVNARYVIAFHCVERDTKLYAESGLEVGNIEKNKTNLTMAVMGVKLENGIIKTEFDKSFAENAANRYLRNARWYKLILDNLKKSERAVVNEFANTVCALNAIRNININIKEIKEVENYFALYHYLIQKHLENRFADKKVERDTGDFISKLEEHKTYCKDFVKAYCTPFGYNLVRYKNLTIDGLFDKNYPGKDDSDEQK

B1: target 2 MT 5'PFS CUG 3'PFS UUC (mixed)
RNA 1: CACCCGUGCAAAAUUGCAGGGGUCUAAAACCUUCUCCAAAUUGUUUCAUCCU
RNA 2: GGGAAUGGAUCCACAUCUACGAAUUCCUGAGGAUGAAACAAUUUGGAGAAGUUCAGAUCGGAAGAGCACACGU
B2: target 2 MT 5'PFS CAU 3'PFS AGG (mixed)
RNA 1: B1 RNA 1
RNA 2: B1 RNA 2 with U28A, G29U, U52A, U53G, C54G
B3: target 2 MT 5'PFS ACC 3'PFS AGA (mixed)
RNA 1: B1 RNA 1
RNA 2: B1 RNA 2 with C27A, U28C, G29C, U52A, U53G, C54A
B4: target 2 MT 5'PFS GGU 3'PFS UUC (mixed)
RNA 1: B1 RNA 1
RNA 2: B1 RNA 2 with C27G, U28G, G29U
B5: target 2 MT 5'PFS GAA 3'PFS UAC (mixed)
RNA 1: B1 RNA 1
RNA 2: B1 RNA 2 with C27G, U28A, G29A, U53A
B6: target 2 MT 5'PFS UCU 3'PFS ACA (mixed)
RNA 1: B1 RNA 1
RNA 2: B1 RNA 2 with C27U, U28C, G29U, U52A, U53C, C54A
B7: target 2 MT 5'PFS GUA 3'PFS ACC (mixed)
RNA 1: B1 RNA 1
RNA 2: B1 RNA 2 with C27G, G29A, U52A, U53C
B8: target 2 MT 5'PFS GCU 3'PFS CAU (mixed)
RNA 1: B1 RNA 1
RNA 2: B1 RNA 2 with C27G, U28C, G29U, U52C, U53A, C54U
B9: target 2 MT 5'PFS UUG 3'PFS UAU (mixed)
RNA 1: B1 RNA 1
RNA 2: B1 RNA 2 with C27U, U53A, C54U
B10: target 2 MT 5'PFS GUA 3'PFS ACG (mixed)
RNA 1: B1 RNA 1
RNA 2: B1 RNA 2 with C27G, G29A, U52A, U53C, C54G
B11: target 2 MT 5'PFS CAC 3'PFS CAU (mixed)
RNA 1: B1 RNA 1
RNA 2: B1 RNA 2 with U28A, G29C, U52C, U53A, C54U
B12: target 2 MT 5'PFS CAC 3'PFS CAG (mixed)
RNA 1: B1 RNA 1
RNA 2: B1 RNA 2 with U28A, G29C, U52C, U53A, C54G
B13: target 2 MT 5'PFS UGG 3'PFS CGA (mixed)
RNA 1: B1 RNA 1
RNA 2: B1 RNA 2 with C27U, U28G, U52C, U53G, C54A
B14: target 2 MT 5'PFS GAA 3'PFS UAA (mixed)
RNA 1: B1 RNA 1
RNA 2: B1 RNA 2 with C27G, U28A, G29A, U53A, C54A
B15: target 2 MT 5'PFS CAC 3'PFS UGU (mixed)
RNA 1: B1 RNA 1
RNA 2: B1 RNA 2 with U28A, G29C, U53G, C54U
B16: target 2 MT 5'PFS AGG 3'PFS CCG (mixed)
RNA 1: B1 RNA 1
RNA 2: B1 RNA 2 with C27A, U28G, U52C, U53C, C54G
B17: target 2 MT 5'PFS UGU 3'PFS UAC (mixed)
RNA 1: B1 RNA 1
RNA 2: B1 RNA 2 with C27U, U28G, G29U, U53A
B18: target 2 MT 5'PFS CUG 3'PFS UUG (mixed)
RNA 1: B1 RNA 1
RNA 2: B1 RNA 2 with C54G
B19: target 2 MT 5'PFS GGC 3'PFS UAA (mixed)
RNA 1: B1 RNA 1
RNA 2: B1 RNA 2 with C27G, U28G, G29C, U53A, C54A
B20: target 2 MT 5'PFS CGG 3'PFS UUG (mixed)
RNA 1: B1 RNA 1
RNA 2: B1 RNA 2 with U28G, C54G
B21: target 2 MT 5'PFS CGG 3'PFS UUA (mixed)
RNA 1: B1 RNA 1
RNA 2: B1 RNA 2 with U28G, C54A
B22: target 2 MT 5'PFS GUA 3'PFS ACU (mixed)
RNA 1: B1 RNA 1
RNA 2: B1 RNA 2 with C27G, G29A, U52A, U53C, C54U
B23: target 2 MT 5'PFS GUA 3'PFS ACA (mixed)
RNA 1: B1 RNA 1
RNA 2: B1 RNA 2 with C27G, G29A, U52A, U53C, C54A
B24: target 2 MT 5'PFS AAA 3'PFS AUC (mixed)
RNA 1: B1 RNA 1
RNA 2: B1 RNA 2 with C27A, U28A, G29A, U52A
B25: target 2 MT 5'PFS CGG 3'PFS UUC (mixed)
RNA 1: B1 RNA 1
RNA 2: B1 RNA 2 with U28G
B26: target 2 MT 5'PFS UUG 3'PFS UAG (mixed)
RNA 1: B1 RNA 1
RNA 2: B1 RNA 2 with C27U, U53A, C54G
B27: target 2 MT 5'PFS CUG 3'PFS CAA (mixed)
RNA 1: B1 RNA 1
RNA 2: B1 RNA 2 with U52C, U53A, C54A
B28: target 2 MT 5'PFS UUG 3'PFS UAC (mixed)
RNA 1: B1 RNA 1
RNA 2: B1 RNA 2 with C27U, U53A
B29: target 2 MT 5'PFS CAC 3'PFS CAC (mixed)
RNA 1: B1 RNA 1
RNA 2: B1 RNA 2 with U28A, G29C, U52C, U53A
B30: target 2 MT 5'PFS AAA 3'PFS AUU (mixed)
RNA 1: B1 RNA 1
RNA 2: B1 RNA 2 with C27A, U28A, G29A, U52A, C54U
B31: target 2 MT 5'PFS AAA 3'PFS AUG (mixed)
RNA 1: B1 RNA 1
RNA 2: B1 RNA 2 with C27A, U28A, G29A, U52A, C54G
B32: target 2 MT 5'PFS UGG 3'PFS CGC (mixed)
RNA 1: B1 RNA 1
RNA 2: B1 RNA 2 with C27U, U28G, U52C, U53G
B33: target 2 MT 5'PFS UUG 3'PFS UAA (mixed)
RNA 1: B1 RNA 1
RNA 2: B1 RNA 2 with C27U, U53A, C54A
B34: target 1 insA 3' of 21,insC 3' of 20 (mixed)
RNA 1: CACCCGUGCAAAAAUGCAGGGGUCUAAAACUGAGCGGAUAACCUCUCUAUGG
RNA 2: GGGAAUGGAUCCACAUCUACGAAUUCGUACCAACUAGAGAGGUUAUCCGCUCACCGAGAUCGGAAGAGCACACGU
B35: target 1 A1G,A9C (mixed)
RNA 1: B34 RNA 1
RNA 2: GGGAAUGGAUCCACAUCUACGAAUUCGUACCAUAGAGAGGUUCUCCGCUCGCCGAGAUCGGAAGAGCACACGU
B36: target 1 insU 3' of 4,insA 3' of 3 (mixed)
RNA 1: B34 RNA 1
RNA 2: GGGAAUGGAUCCACAUCUACGAAUUCGUACCAUAGAGAGGUUAUCCGCUUACACCGAGAUCGGAAGAGCACACGU

The series has as its target T1, EsCas13d, nuclease-dead. The series is described as follows: crRNA (strand 1, pre-loaded); Mg2+; 40 mM Tris-HCl pH 7.5, 150 mM NaCl, 6 mM MgCl2, 1 mM DTT, 0.1% Tween-20, 0.2 mg/ml BSA; 25 C; 10 min per concentration, then washed. To be noted: tags: His6-TwinStrep-SUMO cleaved; N-terminal SNAP kept (SNAP-Surface 488); label: 3' end held by stalled T7 RNA polymerase.
On to B1, for which binding was put at a Kd of 7.3 ± 1.4 nM.
With B2 the figure was 2.8 ± 0.4 nM; with B3, 7.9 ± 3.1 nM; with B4, 73 ± 28 nM.
Next, B5: 12 ± 4 nM.
Next, B6: 9.2 ± 1.9 nM; B7: 22 ± 4 nM; B8: 9.8 ± 2.5 nM.
Molecule B9 registered a Kd of 8.6 ± 0.8 nM.
For the molecule B10, binding was put at a Kd of 10.6 ± 0.9 nM.
With B11 the figure was 3.5 ± 0.4 nM; with B12, 1.3 ± 0.23 nM.
B13 registered a Kd of 5.4 ± 0.8 nM.
With B14 the figure was 7.3 ± 1.5 nM; with B15, 2.27 ± 0.29 nM; with B16, 8.2 ± 0.9 nM.
With B17 the figure was 25 ± 4 nM; with B18, 5.8 ± 0.9 nM; with B19, 9.4 ± 1.2 nM.
Next, B20: 6.5 ± 0.7 nM; B21: 7 ± 1 nM; B22: 15.9 ± 2.7 nM.
Turning to B23, binding was characterised by a dissociation constant (Kd) of 10.7 ± 1.6 nM.
Regarding B24, binding was characterised by a dissociation constant (Kd) of 3.6 ± 0.7 nM.
Next, B25: 10.8 ± 1.7 nM.
For the molecule B26, binding was characterised by a dissociation constant (Kd) of 10.9 ± 1.2 nM.
With B27 the figure was 2.4 ± 0.4 nM.
Next, B28: 14.3 ± 1.2 nM.
Next, B29: 2.9 ± 0.4 nM; B30: 5.2 ± 1 nM.
Consider B31, for which the affinity, expressed as Kd, was 4.4 ± 0.8 nM.
With B32 the figure was 5.8 ± 0.4 nM.
In turn, B33 displayed a Kd of 12.8 ± 2 nM.
As to B34, the dissociation constant (Kd) worked out at 10 ± 0.5 nM.
Next, B35: 13.7 ± 2.3 nM; B36: 8 ± 0.3 nM.
